According to patent US20110212091:

What was measured:
[1] = system: FGFR4 R388, V5-His tagged (FGFR4R388-V5-His)
[2] = system: FGFR4 G388, V5-His tagged (FGFR4G388-V5-His)

Q: With HA-tagged MT1-MMP as the substance, how does the MT1-MMP tyrosine phosphorylation [1] read?
A: Its MT1-MMP tyrosine phosphorylation is “repeatedly detected”.

Q: And the MT1-MMP tyrosine phosphorylation [2]?
A: Its MT1-MMP tyrosine phosphorylation is “repeatedly detected”.
